Among the data in publication PMC8569584 are response (normalized MFI) values, retold here.

Assay [1] has as its target mAb KIM127. The assay is described as follows: mAb binding to transfected HEK293FT cells (MFI normalized to integrin expression). To be noted: read off a plot.
Assay [2] concerns the target mAb m24. The description is as above. The following applies: read off a plot.
The target in assay [3] is human ICAM-1 with a C-terminal Fc tag of human IgG1 (UniProt P05362). Kind of assay: ICAM-1 binding to transfected HEK293FT cells (MFI normalized to integrin expression). To be noted: 1 mM CaCl2 plus 1 mM MgCl2 (Ca/Mg), read off a plot.
Assay [4] has as its target PAC-1. The assay is described as follows: PAC-1 binding to transfected HEK293FT cells (normalized MFI). To be noted: 1 mM Ca/Mg; parent: est. 4; read off a plot.
The mark [5] stands for this setting: 1 mM CaCl2 plus 1 mM MnCl2 (Ca/Mn), parent: est. 200.
Where [6] appears, read: 1 mM CaCl2 plus 1 mM MnCl2 (Ca/Mn), parent: est. 230.

On to “integrin αLβ2 with the αL-GFFKR to GAAKR mutation and wild-type β2 (from UniProt P20701;P05107) β2:I690P”, for which the response (normalized MFI) in assay [1] (1 mM Ca/Mg, parent: est. 80) came to 60; in assay [1] (setting [5]), 170; in assay [2] (1 mM Ca/Mg, parent: est. 98), 67; in assay [2] (setting [6]), 200.
As to “integrin αLβ2 with the αL-GFFKR to GAAKR mutation and wild-type β2 (from UniProt P20701;P05107) β2:I693P”, the response (normalized MFI) in assay [1] (1 mM Ca/Mg, parent: est. 80) is 30; in assay [1] (setting [5]), 110; in assay [2] (1 mM Ca/Mg, parent: est. 98), 33; in assay [2] (setting [6]), 140.
As for “integrin αLβ2 with the αL-GFFKR to GAAKR mutation and wild-type β2 (from UniProt P20701;P05107) β2:I698P”, the response (normalized MFI) in assay [3] (parent: est. 60) was found to be 84.
As for “integrin αLβ2 with the αL-GFFKR to GAAKR mutation and wild-type β2 (from UniProt P20701;P05107) β2:L692P”, the response (normalized MFI) in assay [1] (1 mM Ca/Mg, parent: est. 80) was 120; in assay [1] (setting [5]), 210; in assay [2] (1 mM Ca/Mg, parent: est. 98) it was 160; in assay [2] (setting [6]), 210.
For “integrin αLβ2 with the αL-GFFKR to GAAKR mutation and wild-type β2 (from UniProt P20701;P05107) β2:L696P”, the response (normalized MFI) came to 52 in assay [1] (1 mM Ca/Mg, parent: est. 80); 180 in assay [1] (setting [5]); 75 in assay [2] (1 mM Ca/Mg, parent: est. 98); 260 in assay [2] (setting [6]).
With “integrin αLβ2 with the αL-GFFKR to GAAKR mutation and wild-type β2 (from UniProt P20701;P05107) β2:V691P”, the response (normalized MFI) in assay [1] (1 mM Ca/Mg, parent: est. 80) stood at 31; in assay [1] (setting [5]), 120; in assay [2] (1 mM Ca/Mg, parent: est. 98), 30; in assay [2] (setting [6]), 180.
Regarding “integrin αLβ2 with the αL-GFFKR to GAAKR mutation and wild-type β2 (from UniProt P20701;P05107) β2:V699P”, the response (normalized MFI) is 91 in assay [1] (1 mM Ca/Mg, parent: est. 80); 190 in assay [1] (setting [5]); 220 in assay [2] (setting [6]).
For αIIb WT + β3 WT αIIb:L959C; αIIb:F992C, in assay [4], the response (normalized MFI) stood at 34.
On to “αIIb WT + β3 WT αIIb:L959C; αIIb:F992C; β3:P688C”, for which the response (normalized MFI) in assay [4] was determined as 3.
On to αIIb WT + β3 WT αIIb:L959C; αIIb:F993C, for which the response (normalized MFI) in assay [4] stood at 37.
Turning to “αIIb WT + β3 WT αIIb:L959C; αIIb:F993C; β3:P688C”, in assay [4], the response (normalized MFI) turned out to be 3.
Still for that read-out and setting: under αIIb WT + β3 WT αIIb:L959C; αIIb:G991C stands 150.
As for “αIIb WT + β3 WT αIIb:L959C; αIIb:G991C; β3:P688C”, the response (normalized MFI) in assay [4] turned out to be 4.
In the case of αIIb WT + β3 WT αIIb:L959C; αIIb:K994C, the response (normalized MFI) in assay [4] came to 25.
Consider “αIIb WT + β3 WT αIIb:L959C; αIIb:K994C; β3:P688C”, for which the response (normalized MFI) in assay [4] was determined as 3.
As for αIIb WT + β3 WT αIIb:L959C; αIIb:R995C, in assay [4], the response (normalized MFI) stood at 110.
With “αIIb WT + β3 WT αIIb:L959C; αIIb:R995C; β3:P688C”, the response (normalized MFI) in assay [4] turned out to be 11.
As to αIIb WT + β3 WT β3:P688C, the response (normalized MFI) in assay [4] turned out to be 6.
As to αL/β2 WT αL:FFAA (GFFKR to GAAKR), the response (normalized MFI) in assay [1] (1 mM Ca/Mg, parent: est. 18) turned out to be 80; in assay [1] (1 mM CaCl2 plus 1 mM MnCl2 (Ca/Mn), parent: est. 44) it was 200; in assay [2] (1 mM CaCl2 plus 1 mM MnCl2 (Ca/Mn), parent: est. 58), 230; in assay [3] (parent: est. 5), 60.
